Reference: patent US8450481B2, “Compounds for inhibiting protein aggregation, and methods for making and using them” (The Regents of the University of California, priority 2007, dated 2013)

What was measured:
[1] = tested on: HEK293T cells expressing α-syn; test: ion currents in HEK293T cells expressing α-syn; assay type: cell-based; conditions: extracellular application of 500 μM Zn^2+, +80 mv
Source text: FIG. 3K, FIG. 3L and FIG. 3M graphically illustrate data showing representative currents elicited by depolarizing the cells from a holding potential of −50 mv to a series of test potentials ranging from −80 to +80 mv, and corresponding current-voltage relationship (E; means±SE) in transduced cells. Cells expressing α-syn display a significant increase in ion currents. FIG. 3N left panel graphically illustrates representative currents at +80 mv (left panel) before (Cont), during (Zn^2+) and after (Wash) application of 500 μM Zn^2+. FIG. 3N, right panel, graphically illustrates the time course of the change in current density before, during, and after extracellular application of Zn^2+. The arrows correspond to the currents shown in the left panel (Cont, a; Zn^2+, b; and Washout, c). The increased currents in cells expressing α-syn are attenuated by Zn^2+.

SYN [2] = molecular target: T1, SYN (Homo sapiens, UniProt P37840); test: cell free SYN aggregation assay with immunoblot; assay type: biochemical; conditions: for blocking SYN aggregation in cell free system, compared with the other peptides and controls: immunoblot
Description: The peptides of the invention were tested in a cell free system with the appropriate controls (smaller and larger peptides, amino acid (aa) substitutions, scrambled sequence). For this purpose recombinant SYN (10 uM) was incubated at 37 and 65 degrees C. for 0, 4, 6, 12 and 24 with the peptides at 0, 1 and 10 uM. Control experiments where performed with beta and gamma-synuclein as well as with a mutant SYN molecule that cannot bind the peptide. The mixture was run in a gel, followed by immunoblot testing with SYN antibodies.

α-syn = molecular target: T2, α-syn (Homo sapiens, UniProt P37840); test: intraventricular infusion in α-syn transgenic mice; assay type: in vivo
T2 construct: from tissue; host or cells: brain (hippocampus) of thy1-α-syn transgenic mice
Description: FIG. 19 illustrates the effects of peptide blocker of α-syn aggregation in vivo in α-syn (α-syn) transgenic mice. FIG. 19A illustrates the experimental design: for these studies the thy1-overexpressing α-syn received intraventricular infusions with osmotic minipumps of control scrambled peptide, or the exemplary peptide of this invention 96-102 KKDQLGK (SEQ ID NO:1) for 6 weeks, at 30 μM peptide, where 200 μl of solution is minipumped into the lateral ventricle of the animal.

[3] = tested on: neuronal cultures overexpressing α-syn; test: intracellular calcium influx by Fluo-4 and FLIPR assay in neuronal cultures overexpressing α-syn; assay type: cell-based; conditions: after 24 hrs at 37° C., compared to vehicle and scrambled peptide controls
Source text: FIG. 18 illustrates the effects of a peptide blocker of α-syn aggregation of this invention in neuronal calcium levels. FIG. 18A is a micrograph illustration showing that in neuronal cultures overexpressing α-syn there is a significant time dependent increase in intracellular calcium influx as determined by Fluo-4 and the FLIPR assay. […] (arrow) compared to vehicle and scrambled peptide controls. Data from these studies is graphically summarized on the right hand panels.

SYN [4] = molecular target: T1, SYN; test: α-syn aggregation/accumulation in neuronal cultures overexpressing α-syn (B103 neuronal cell line, lentivirus SYN); assay type: cell-based; parameters: expressed in transfected cells; host or cells: B103 neuronal cell line, lentiviral transduction; conditions: 24 hrs
Description: The B103 neuronal cell line was infected with a lentivirus expressing SYN (wildtype) or GFP (control) and cells expressing SYN were exposed to the peptides at 0, 1 and 10 uM for 24 hrs. Cells were assayed for SYN aggregation by immunoblot, neurite outgrowth and survival. […] The peptide KKDQLGK (SEQ ID NO:1) and control peptides can be injected into the brain of SYN transgenic (tg) mice to test for in vivo effects.

[5] = tested on: neuronal cultures overexpressing α-syn; test: neuronal viability by LDH assay in neuronal cultures overexpressing α-syn; assay type: cell-based
Source text: FIG. 17 illustrates the effects of a peptide blocker of α-syn aggregation of this invention in neuronal viability.

levels of monomeric and aggregated α-syn, immunoblot (α-syn; infusion, compared to scrambled peptide controls) | α-syn accumulation in neuronal cultures overexpressing α-syn (SYN [4]; peptide at 1 uM, compared to vehicle) | α-syn aggregation, cell free immunoblot assays (SYN [2]; at 37° C. and 65° C.) | Compound | increased ion currents in cells expressing α-syn [1] | blocking SYN aggregation in cell free system, compared with the other peptides and controls (SYN [2]) | neuronal α-syn accumulation in the hippocampus (α-syn; intraventricular infusion 6 weeks, 30 μM peptide, compared to scrambled peptide) | neuronal calcium influx [3] | blocking SYN aggregation in neuronal cell based system, compared with the other peptides and controls (SYN [4]; immunoblot, B103 cells expressing SYN) | neuronal viability as assayed by the LDH assay [5]
– | – | – | [Zn+2] [Zn^2+] | attenuated | – | – | – | – | –
– | – | – | EKTKEQVTN [amino acids 57-65 of SYN] | – | most effective at blocking SYN aggregation | – | – | – | –
significant reduction | reduced accumulation of α-syn dimer | reduced aggregation | KKDQLGK [amino acids 96-102 of human SYN] | – | most effective at blocking SYN aggregation | significant reduction in neuronal α-syn accumulation | reduced neuronal calcium influx | most effective at blocking SYN aggregation | improved neuronal viability
